From patent US20250011363A1, “OPTIMIZED SHORTENED PEPTIDE THAT BINDS TO ACETYLCHOLINE RECEPTOR, AND USE THEREOF” (SKINMED CO., LTD., priority 2021, published 2025)

What follows are substances tested against acetylcholine receptor (Homo sapiens, UniProt P02708) (assay: SPR binding affinity (RU) of optimized 5mer/6mer/7mer peptides, Examples 6-7). Settings: SPR, Resonance Units; peptides tested at 10 μM; 6mer-1 Bottom sequence.
Summary of the method: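 SPR, peptides at 10 μM; read-out = response units (RU). Sequences drawn from top- or bottom-frequency amino acid combinations, 5mer/6mer-1/6mer-2 libraries.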

Sequence of acetylcholine receptor (P02708 21-457): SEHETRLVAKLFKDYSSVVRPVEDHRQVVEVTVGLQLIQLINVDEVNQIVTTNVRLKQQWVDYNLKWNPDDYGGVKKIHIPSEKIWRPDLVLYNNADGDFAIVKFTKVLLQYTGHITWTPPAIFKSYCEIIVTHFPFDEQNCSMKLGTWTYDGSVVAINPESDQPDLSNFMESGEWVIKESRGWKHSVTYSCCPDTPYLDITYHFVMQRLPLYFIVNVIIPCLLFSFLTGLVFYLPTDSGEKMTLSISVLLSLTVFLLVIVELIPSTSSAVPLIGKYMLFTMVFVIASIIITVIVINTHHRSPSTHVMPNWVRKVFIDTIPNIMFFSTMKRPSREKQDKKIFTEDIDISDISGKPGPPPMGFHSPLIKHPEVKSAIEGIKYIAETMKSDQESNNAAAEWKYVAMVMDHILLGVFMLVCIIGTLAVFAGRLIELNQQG

Substance	Binding affinity [Ru]
6mer-1-998 (KRNPVK)	41
6mer-1-999 (RKATNR)	24
6mer-1-1000 (RKMSHR)	28
6mer-1-1002 (KRIHMK)	29
6mer-1-1003 (RKYCHR)	24
6mer-1-1004 (RKHSHR)	41
6mer-1-1005 (RKPPDR)	26
6mer-1-1006 (KKDKIK)	25
6mer-1-1007 (RKPTDR)	39
6mer-1-1008 (RKPWAR)	21
6mer-1-1009 (RKMSKK)	29
6mer-1-1010 (KKPKHK)	33
6mer-1-1011 (RKKPEK)	35
6mer-1-1012 (RRAWVR)	35
6mer-1-1013 (KKTTNK)	29
6mer-1-1014 (KKNAWR)	25
6mer-1-1015 (KREEWR)	26
6mer-1-1016 (KRHTHR)	21
6mer-1-1017 (KRANMK)	37
6mer-1-1018 (KKTAFK)	28
6mer-1-1019 (KRDAWR)	37
6mer-1-1020 (KKMEAK)	38
6mer-1-1021 (KKHDIK)	41
6mer-1-1022 (RKDTVR)	22
6mer-1-1023 (KRIMHK)	39

Substance	Binding affinity [Ru]
6mer-1-1024 (RKTEIR)	36
6mer-1-1025 (KRFAKR)	33
6mer-1-1026 (RKKCER)	30
6mer-1-1027 (KKPWHK)	22
6mer-1-1028 (RRHCWR)	36
6mer-1-1029 (RRCMAK)	40
6mer-1-1030 (KKFCFR)	30
6mer-1-1031 (RKDTHK)	38
6mer-1-1032 (KKTSMR)	27
6mer-1-1033 (KRHMVK)	30
6mer-1-1034 (KKASDR)	24
6mer-1-1035 (RRCHHR)	34
6mer-1-1036 (KKITFR)	21
6mer-1-1037 (RRKNNR)	36
6mer-1-1038 (RRKKIR)	21
6mer-1-1039 (KRADIK)	40
6mer-1-1040 (KRIEFR)	28
6mer-1-1041 (RKEHGK)	23
6mer-1-1042 (KKITAR)	40
6mer-1-1043 (KRAAHR)	30
6mer-1-1044 (KKHHIR)	24
6mer-1-1045 (KKTPGR)	27
6mer-1-1046 (RKDPHR)	38
6mer-1-1047 (RKATDK)	30
6mer-1-1048 (RRCMMK)	36

Substance	Binding affinity [Ru]
6mer-1-1049 (KKDHKK)	31
6mer-1-1050 (KKMEDR)	38
6mer-1-1051 (KKKSFK)	43
6mer-1-1052 (KRHWIR)	33
6mer-1-1053 (RKYTPK)	27
6mer-1-1054 (RRMKVK)	37
6mer-1-1055 (KRCNDK)	40
6mer-1-1056 (RRNTAK)	27
6mer-1-1057 (KRKPVR)	43
6mer-1-1058 (KRFPWR)	21
6mer-1-1059 (RRETVK)	39
6mer-1-1060 (KRYNVR)	21
6mer-1-1061 (RRISIR)	41
6mer-1-1062 (RRICMR)	27
6mer-1-1063 (KKIDHK)	25
6mer-1-1064 (RKPTAK)	41
6mer-1-1065 (KRDKAK)	23
6mer-1-1066 (RKEDVK)	23
6mer-1-1067 (RRKHWK)	38
6mer-1-1068 (KRYHIR)	31
6mer-1-1069 (KKIWAR)	23
6mer-1-1070 (KKTCDK)	24
6mer-1-1071 (RKTKAK)	38

Same assay, conditions: SPR, peptides tested at 10 μM; 6mer-1 Bottom sequence (Table 11)

Substance	Binding affinity [Ru]
6mer-1-912 (KKETFR)	33
6mer-1-913 (KRFWWK)	27
6mer-1-914 (RRKCVR)	39
6mer-1-915 (RKDTWK)	27
6mer-1-916 (RRNAAK)	33
6mer-1-917 (KRADDK)	27
6mer-1-918 (RRESMR)	33
6mer-1-919 (RKDHIK)	26
6mer-1-920 (RRPAMR)	40
6mer-1-921 (RKFWHR)	36
6mer-1-922 (RRDWGR)	34
6mer-1-923 (RRASDR)	43
6mer-1-924 (RKFNWR)	29
6mer-1-925 (KKAMHR)	42
6mer-1-926 (KRESDR)	40
6mer-1-927 (KRESHR)	37
6mer-1-928 (KRYCPK)	30
6mer-1-929 (RRCDHK)	25
6mer-1-930 (KKESNK)	43
6mer-1-931 (KKNWPR)	35
6mer-1-932 (KRFEFK)	38
6mer-1-933 (RRPWNR)	28

Substance	Binding affinity [Ru]
6mer-1-934 (KRPPGK)	39
6mer-1-935 (RKKDIK)	40
6mer-1-936 (RKETDR)	36
6mer-1-937 (RKPTNR)	34
6mer-1-938 (KKIAWK)	28
6mer-1-939 (KRNDFK)	41
6mer-1-940 (RKPEDR)	29
6mer-1-941 (RKTPKK)	29
6mer-1-942 (RRMMVR)	37
6mer-1-943 (KKEHDK)	43
6mer-1-944 (RKPAGK)	25
6mer-1-945 (RKTSIK)	31
6mer-1-946 (RRCEPR)	31
6mer-1-947 (KRTKGR)	31
6mer-1-948 (RKFTVR)	24
6mer-1-949 (RKEMPR)	37
6mer-1-950 (RKEDKR)	29
6mer-1-951 (RKAMDK)	29
6mer-1-952 (KRHDKK)	28
6mer-1-953 (KRTNGK)	26
6mer-1-954 (KKAKGR)	41
6mer-1-955 (RKECFK)	23

Substance	Binding affinity [Ru]
6mer-1-956 (KRKSNK)	34
6mer-1-957 (KKPPDK)	43
6mer-1-958 (KRYAGR)	43
6mer-1-959 (KKIWFR)	36
6mer-1-960 (KKCPFR)	34
6mer-1-961 (RRTWAR)	122
6mer-1-962 (KKNCDK)	42
6mer-1-963 (RREEDK)	29
6mer-1-964 (RKFKNK)	42
6mer-1-965 (KRIWDK)	36
6mer-1-966 (RRNSWK)	22
6mer-1-967 (RRTEDR)	24
6mer-1-968 (RREDFR)	39
6mer-1-969 (RKDHWR)	33
6mer-1-970 (RRCCAR)	38
6mer-1-971 (RKIEMK)	32
6mer-1-972 (RRHTHK)	43
6mer-1-973 (RRDHVK)	25
6mer-1-974 (RKPAHK)	27
6mer-1-975 (RKASIK)	22
6mer-1-976 (RKEMIK)	40
6mer-1-977 (RRPCFR)	43

Substance	Binding affinity [Ru]
6mer-1-978 (RRKSHK)	43
6mer-1-979 (RRYWEK)	42
6mer-1-980 (RKICAK)	33
6mer-1-981 (RKDDKK)	27
6mer-1-982 (KRCPDR)	35
6mer-1-983 (KRPHKK)	38
6mer-1-984 (KKESDK)	33
6mer-1-985 (KRKSER)	22
6mer-1-986 (KKAEEK)	22
6mer-1-987 (RRTEFK)	34
6mer-1-988 (KRYPDR)	24
6mer-1-989 (KRATVR)	27
6mer-1-990 (RRFTER)	40
6mer-1-991 (RKAHDK)	25
6mer-1-992 (RRCTAK)	28
6mer-1-993 (KRAHDK)	26
6mer-1-994 (KKHEFR)	37
6mer-1-995 (KRCHHR)	33
6mer-1-996 (RRPPWK)	39
6mer-1-997 (KKPTFR)	35
